Reference: publication PMC4538837, “Structural basis for substrate recognition and processive cleavage mechanisms of the trimeric exonuclease PhoExo I”

Target: PhoExo I D80N (Pyrococcus horikoshii OT3, UniProt A0A060P168 1-229, D80N)
Test: X-ray crystal structure (1.95 A); Mg2+ (soaked), one at A metal site; EMSA: 25 mM Hepes-NaOH pH 7.5, 50 mM NaCl, 0.1 mM EDTA, 0.1 mg/ml BSA, 5 nM probe, 0-1600 nM trimer, 5 min 55 C, then 0.05% glutaraldehyde 10 min at room temperature; 7.5% native PAGE in TBE
Conditions: protein: recombinant; tags: C-terminal 4xHis (mutants made from the CHis plasmid; crystal construct not detailed in the material); chain copies: 3; single strand; 3 copies per trimer

Chain of PhoExo I D80N (A0A060P168 entry or part of it D80N | D80N D80N): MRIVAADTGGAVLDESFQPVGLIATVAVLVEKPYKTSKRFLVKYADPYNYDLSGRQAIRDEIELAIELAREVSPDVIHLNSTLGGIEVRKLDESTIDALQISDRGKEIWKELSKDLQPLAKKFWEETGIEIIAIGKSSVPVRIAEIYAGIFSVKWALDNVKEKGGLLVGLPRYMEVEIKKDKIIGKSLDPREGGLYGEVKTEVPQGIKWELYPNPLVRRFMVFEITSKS

TTTTTTT (ssDNA) [poly-dT 7 nt]: binds.
